The record followed here is publication PMC1865072 (Nucleic Acids Research, 2007).

Where two headings read alike, the source gives them in different places.

Holding throughout (test): native MS
Data set [1] has as its target 15N-labelled Kis antitoxin (Killing suppressor) of the parD operon of plasmid R1 (Escherichia coli (plasmid R1)).
Data set [2] shares this target. The source holds these as a separate data set.
The data set “native MS” deals with the molecule itself.

15N-labelled Kis antitoxin (Killing suppressor) of the parD operon of plasmid R1 (Escherichia coli (plasmid R1)), sequence (P13975 whole entry): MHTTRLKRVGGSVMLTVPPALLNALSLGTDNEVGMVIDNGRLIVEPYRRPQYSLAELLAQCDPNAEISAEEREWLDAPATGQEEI

“15N-labelled Kis antitoxin (Killing suppressor) of the parD operon of plasmid R1 (natural protein)” came in with a stoichiometry N (subunits in the oligomer) in data set [1] of 2.
For the molecule “Kid toxin (Killing determinant) of the parD operon of plasmid R1 (from UniProt P13976 24-133) (natural protein)”, in data set [2], the stoichiometry N (Kid per Kis (2:1)) is 2, the stoichiometry N (Kid per Kis (2:2)) came out at 1, the stoichiometry N (Kid per Kis (4:2)) was 2 and the stoichiometry N (Kid per Kis (4:4)) amounted to 1. The molecule further yielded a stoichiometry N (Kid per Kis (4:6), on the 30-bp parD DNA) in data set [2] of 0.67. In data set [1], the stoichiometry N (Kid per Kis (2:1)) was determined as 2 and the stoichiometry N (Kid per Kis (4:2)) amounted to 2.

B1: Kid toxin (Killing determinant) of the parD operon of plasmid R1 (natural protein)
chain: MERGEIWLVSLDPTAGHEQQGTRPVLIVTPAAFNRVTRLPVVVPVTSGGNFARTAGFAVSLDGVGIRTTGVVRCDQPRTIDMKARGGKRLERVPETIMNEVLGRLSTILT
With B1, the “stoichiometry N” value in “native MS” turned out to be 2 subunits in the oligomer.

As a reminder, the stoichiometry N is the number of molecules, sites or subunits per partner or assembly.
